Measurements taken from US20230279124A1.

Biological target: human IgE (human) (UniProt P01854)
Experiment: BLI (Octet RED 384), GI-305 captured on AHC biosensor, IgE 1.6 to 100 nM as analyte

Chain of UniProt P01854 (P01854 other isoform, or with tags, fused parts or gaps): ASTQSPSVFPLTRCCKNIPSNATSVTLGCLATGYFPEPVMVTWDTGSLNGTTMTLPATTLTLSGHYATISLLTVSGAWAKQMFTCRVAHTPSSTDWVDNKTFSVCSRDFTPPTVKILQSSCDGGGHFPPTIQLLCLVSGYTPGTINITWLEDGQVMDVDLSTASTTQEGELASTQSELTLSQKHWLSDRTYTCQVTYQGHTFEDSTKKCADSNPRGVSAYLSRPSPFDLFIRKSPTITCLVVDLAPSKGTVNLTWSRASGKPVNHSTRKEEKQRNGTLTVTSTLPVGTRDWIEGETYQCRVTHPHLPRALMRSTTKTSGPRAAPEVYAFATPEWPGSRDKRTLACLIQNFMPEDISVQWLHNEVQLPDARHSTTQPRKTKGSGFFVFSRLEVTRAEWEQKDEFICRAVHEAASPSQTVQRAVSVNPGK

Kd: 0.5 nM
koff: 9.74e-05 s⁻¹
kon: 201000 M⁻¹ s⁻¹
B1: GI-305 (FcεRIα ECD-Fc-anti-IL-4R scFv) fusion protein dimer (Fc fusion)
chain: VPQKPKVSLNPPWNRIFKGENVTLTCNGNNFFEVSSTKWFHNGSLSEETNSSLNIVNAKFEDSGEYKCQHQQVNESEPVYLEVFSDWLLLQASAEVVMEGQPLFLRCHGWRNWDVYKVIYYKDGEALKYWYENHNISITNATVEDSGTYYCTGKVWQLDYESEPLNITVIKAPREKYWLQGSGGGGSGGGGSGGGGSAESKYGPPCPPCPAPEAAGGPSVFLFPPKPKDQLMISRTPEVTCVVVDVSQEDPEVQFNWYVDGVEVHNAKTKPREEQFNSTYRVVSVLTVLHQDWLNGKEYKCKVSNKGLPSSIEKTISKAKGQPREPQVYTLPPSQEEMTKNQVSLTCLVKGFYPSDIAVEWESNGQPENNYKTTPPVLDSDGSFFLYSRLTVDKSRWQEGNVFSCSVLHEALHNHYTQKSLSLSLGGGGGSGGGGSGGEVQLVESGGGLEQPGGSLRLSCAGSGFTFRDYAMTWVRQAPGKCLEWVSSISGSGGNTYYADSVKGRFTISRDNSKNTLYLQMNSLRAEDTAVYYCAKDRLSITIRPRYYGLDVWGQGTTVTVSSGGGGSGGGGSGGGGSGGGGSDIVMTQSPLSLPVTPGEPASISCRSSQSLLYSIGYNYLDWYLQKSGQSPQLLIYLGSNRASGVPDRFSGSGSGTDFTLKISRVEAEDVGFYYCMQALQTPYTFGCGTKLEIK
